Among the data in article PMC9352680, “A comprehensive thermodynamic model for RNA binding by the Saccharomyces cerevisiae Pumilio protein PUF4” are Kd values, retold here.

The target in this data set is T1, PUF4 RNA-binding domain (Saccharomyces cerevisiae, UniProt P25339 537-888).
T1 sequence: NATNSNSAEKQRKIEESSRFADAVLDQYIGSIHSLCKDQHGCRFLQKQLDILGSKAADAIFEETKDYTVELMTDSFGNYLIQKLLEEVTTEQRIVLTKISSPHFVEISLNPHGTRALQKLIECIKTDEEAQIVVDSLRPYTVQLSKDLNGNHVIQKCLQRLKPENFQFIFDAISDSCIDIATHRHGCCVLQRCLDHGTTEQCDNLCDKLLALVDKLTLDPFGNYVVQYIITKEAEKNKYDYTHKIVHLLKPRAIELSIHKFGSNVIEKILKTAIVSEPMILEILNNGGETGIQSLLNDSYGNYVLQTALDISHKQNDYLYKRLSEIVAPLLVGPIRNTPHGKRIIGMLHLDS
As to the kind of experiment: Mg; RNA-MaP; 20 mM Na-HEPES pH 7.4, 30 mM KOAc, 0.75 mM MgCl2, 0.1% Tween-20, 5% glycerol, 0.1 mg/mL BSA, 2 mM DTT; 25 C; 0.0125-409.6 nM protein. The note with it: tags: N-His6-TEV cleaved; C-SNAP kept, Cy3B-labelled; label: tethered on chip by stalled RNA polymerase.
The molecule ACAAACUUUAUAUAUUAUAACAAAC (ssRNA) [Id_ii_S3_P4E.3_K4.2_C4.2_[C-2T]_H4.2_A4.1_F4.1_T4.2_[G10T]_[T11A]] came in with a dissociation constant (Kd) of 18.1 nM. For ACAAACAUUAUAUAUUACGACAAAC (ssRNA) [Id_ii_S3_P4E.3_K4.2_C4.2_[C-2A]_H4.2_A4.1_F4.1_T4.2_[G10C]_[T11G]] the value was 21.4 nM; for ACAAACGUUAUAUAUUAUCACAAAC (ssRNA) [Id_ii_S3_P4E.3_K4.2_C4.2_[C-2G]_H4.2_A4.1_F4.1_T4.2_[G10T]_[T11C]], 42.4 nM; for ACAAACACUAUAUAUUAUAACAAAC (ssRNA) [Id_ii_S3_P4E.3_K4.2_C4.2_[C-2A]_[T-1C]_H4.2_A4.1_F4.1_T4.2_[G10T]_[T11A]], 20.5 nM. For ACAAACACUAUAUAUUACCACAAAC (ssRNA) [Id_ii_S3_P4E.3_K4.2_C4.2_[C-2A]_[T-1C]_H4.2_A4.1_F4.1_T4.2_[G10C]_[T11C]] the value was 33.5 nM. On to ACAAACCCUAUAUAUUAACACAAAC (ssRNA) [Id_ii_S3_P4E.3_K4.2_C4.2_[T-1C]_H4.2_A4.1_F4.1_T4.2_[G10A]_[T11C]], for which binding was characterised by a dissociation constant (Kd) of 25.9 nM. The molecule ACAAACCCUAUAUAUUAUUACAAAC (ssRNA) [Id_ii_S3_P4E.3_K4.2_C4.2_[T-1C]_H4.2_A4.1_F4.1_T4.2_[G10T]] displayed a Kd of 13.3 nM.

Regarding ACAAACUCUAUAUAUUAUGACAAAC (ssRNA) [Id_ii_S3_P4E.3_K4.2_C4.2_[C-2T]_[T-1C]_H4.2_A4.1_F4.1_T4.2_[G10T]_[T11G]], the affinity, expressed as Kd, was 14.5 nM. The Kd values of the last two molecules are within 1.5-fold of each other.

Molecule UCUCUUUGUACUAUUAUCUCUU (ssRNA) [Ie_S1_P4E.1_K4.1_C4.1_H4.1_[+4C]_A4.1_F4.1_T4.1] yielded a Kd of 4.49 nM. Molecule ACAAACUUUAUAUAUUAACACAAAC (ssRNA) [Id_ii_S3_P4E.3_K4.2_C4.2_[C-2T]_H4.2_A4.1_F4.1_T4.2_[G10A]_[T11C]] returned a Kd of 29.5 nM. ACAAACUAUAUAUAUUACGACAAAC (ssRNA) [Id_ii_S3_P4E.3_K4.2_C4.2_[C-2T]_[T-1A]_H4.2_A4.1_F4.1_T4.2_[G10C]_[T11G]] came in with a Kd of 27.8 nM. For ACAAACAAUAUAUAUUAUCACAAAC (ssRNA) [Id_ii_S3_P4E.3_K4.2_C4.2_[C-2A]_[T-1A]_H4.2_A4.1_F4.1_T4.2_[G10T]_[T11C]] the value was 70.9 nM; for ACAAACACUAUAUAUUACUACAAAC (ssRNA) [Id_ii_S3_P4E.3_K4.2_C4.2_[C-2A]_[T-1C]_H4.2_A4.1_F4.1_T4.2_[G10C]], 17.6 nM; for UCUCUUUGUAUUUUUGUCUCUU (ssRNA) [Ib_S1_P5E.1_K5.1_C5.1_H5.1_A5.1_[A7T]_F5.1_[A10G]_T5.1], 13.7 nM. To ACAAACGAUAUAUAUUAAAACAAAC (ssRNA) [Id_ii_S3_P4E.3_K4.2_C4.2_[C-2G]_[T-1A]_H4.2_A4.1_F4.1_T4.2_[G10A]_[T11A]] belongs 74.6 nM; to ACAAACCCUAUAUAUUACUACAAAC (ssRNA) [Id_ii_S3_P4E.3_K4.2_C4.2_[T-1C]_H4.2_A4.1_F4.1_T4.2_[G10C]], 18.4 nM; to ACAAACACUAUAUAUUAUCACAAAC (ssRNA) [Id_ii_S3_P4E.3_K4.2_C4.2_[C-2A]_[T-1C]_H4.2_A4.1_F4.1_T4.2_[G10T]_[T11C]], 17.7 nM. For ACAAACCCUAUAUAUUAAUACAAAC (ssRNA) [Id_ii_S3_P4E.3_K4.2_C4.2_[T-1C]_H4.2_A4.1_F4.1_T4.2_[G10A]] the value was 14 nM. As for ACAAACUCUAUAUAUUAUAACAAAC (ssRNA) [Id_ii_S3_P4E.3_K4.2_C4.2_[C-2T]_[T-1C]_H4.2_A4.1_F4.1_T4.2_[G10T]_[T11A]], the dissociation constant (Kd) is 15.5 nM.

ACAAACAUUAUAUAUUACAACAAAC (ssRNA) [Id_ii_S3_P4E.3_K4.2_C4.2_[C-2A]_H4.2_A4.1_F4.1_T4.2_[G10C]_[T11A]]: the Kd came to 27.7 nM. For ACAAACUAUAUAUAUUAACACAAAC (ssRNA) [Id_ii_S3_P4E.3_K4.2_C4.2_[C-2T]_[T-1A]_H4.2_A4.1_F4.1_T4.2_[G10A]_[T11C]], binding was characterised by a dissociation constant (Kd) of 32.9 nM. To ACAAACUUUAUAUAUUAUCACAAAC (ssRNA) [Id_ii_S3_P4E.3_K4.2_C4.2_[C-2T]_H4.2_A4.1_F4.1_T4.2_[G10T]_[T11C]] belongs 16.5 nM; to ACAAACAAUAUAUAUUACUACAAAC (ssRNA) [Id_ii_S3_P4E.3_K4.2_C4.2_[C-2A]_[T-1A]_H4.2_A4.1_F4.1_T4.2_[G10C]], 28.2 nM. For ACAAACUCUAUAUAUUAUCACAAAC (ssRNA) [Id_ii_S3_P4E.3_K4.2_C4.2_[C-2T]_[T-1C]_H4.2_A4.1_F4.1_T4.2_[G10T]_[T11C]], the Kd was determined as 16.3 nM.

For ACAAACUUUAUAUAUUACGACAAAC (ssRNA) [Id_ii_S3_P4E.3_K4.2_C4.2_[C-2T]_H4.2_A4.1_F4.1_T4.2_[G10C]_[T11G]], the affinity, expressed as Kd, was 19.4 nM. This Kd and that of the molecule before are within 1.5-fold of each other.

The molecule ACAAACCCUAUAUAUUACGACAAAC (ssRNA) [Id_ii_S3_P4E.3_K4.2_C4.2_[T-1C]_H4.2_A4.1_F4.1_T4.2_[G10C]_[T11G]] displayed a dissociation constant Kd of 16.6 nM. The Kd values of the last two molecules are within 1.5-fold of each other. To ACAAACAUUAUAUAUUAGAACAAAC (ssRNA) [Id_ii_S3_P4E.3_K4.2_C4.2_[C-2A]_H4.2_A4.1_F4.1_T4.2_[T11A]] belongs 12.8 nM; to ACAAACAUUAUAUAUUACUACAAAC (ssRNA) [Id_ii_S3_P4E.3_K4.2_C4.2_[C-2A]_H4.2_A4.1_F4.1_T4.2_[G10C]], 21.1 nM. UCUCUUUGUAUUCUUGUCUCUU (ssRNA) [Ib_S1_P5E.1_K5.1_C5.1_H5.1_A5.1_[A7C]_F5.1_[A10G]_T5.1]: binding was characterised by a dissociation constant (Kd) of 20.4 nM. Consider ACAAACAAUAUAUAUUAAAACAAAC (ssRNA) [Id_ii_S3_P4E.3_K4.2_C4.2_[C-2A]_[T-1A]_H4.2_A4.1_F4.1_T4.2_[G10A]_[T11A]], for which the equilibrium dissociation constant (Kd) is 108 nM. The molecule ACAAACAUUAUAUAUUAUCACAAAC (ssRNA) [Id_ii_S3_P4E.3_K4.2_C4.2_[C-2A]_H4.2_A4.1_F4.1_T4.2_[G10T]_[T11C]] gave a Kd of 19.4 nM. Turning to UCUCUUUGUAUGAUUUUCUCUU (ssRNA) [Ib_S1_P5E.1_K5.1_C5.1_H5.1_A5.1_[T6G]_F5.1_[A10T]_T5.1], the dissociation constant (Kd) was determined as 39.5 nM. To UCUCUUUGUAUCAUUUUCUCUU (ssRNA) [Ib_S1_P5E.1_K5.1_C5.1_H5.1_A5.1_[T6C]_F5.1_[A10T]_T5.1] belongs 7.85 nM; to ACAAACACUAUAUAUUAUGACAAAC (ssRNA) [Id_ii_S3_P4E.3_K4.2_C4.2_[C-2A]_[T-1C]_H4.2_A4.1_F4.1_T4.2_[G10T]_[T11G]], 16.6 nM; to ACAAACACUAUAUAUUAACACAAAC (ssRNA) [Id_ii_S3_P4E.3_K4.2_C4.2_[C-2A]_[T-1C]_H4.2_A4.1_F4.1_T4.2_[G10A]_[T11C]], 29.6 nM. Consider ACAAACAGUAUAUAUUAUCACAAAC (ssRNA) [Id_ii_S3_P4E.3_K4.2_C4.2_[C-2A]_[T-1G]_H4.2_A4.1_F4.1_T4.2_[G10T]_[T11C]], for which the Kd was 25.5 nM. The Kd values of the last two molecules are within 1.5-fold of each other. For ACAAACGUUAUAUAUUAUUACAAAC (ssRNA) [Id_ii_S3_P4E.3_K4.2_C4.2_[C-2G]_H4.2_A4.1_F4.1_T4.2_[G10T]] the value was 31.6 nM; for ACAAACGAUAUAUAUUAAUACAAAC (ssRNA) [Id_ii_S3_P4E.3_K4.2_C4.2_[C-2G]_[T-1A]_H4.2_A4.1_F4.1_T4.2_[G10A]], 40.7 nM; for ACAAACAAUAUAUAUUACGACAAAC (ssRNA) [Id_ii_S3_P4E.3_K4.2_C4.2_[C-2A]_[T-1A]_H4.2_A4.1_F4.1_T4.2_[G10C]_[T11G]], 43.6 nM.

In turn, ACAAACAGUAUAUAUUAGAACAAAC (ssRNA) [Id_ii_S3_P4E.3_K4.2_C4.2_[C-2A]_[T-1G]_H4.2_A4.1_F4.1_T4.2_[T11A]] yielded a Kd of 11.3 nM. In the case of ACAAACACUAUAUAUUAAAACAAAC (ssRNA) [Id_ii_S3_P4E.3_K4.2_C4.2_[C-2A]_[T-1C]_H4.2_A4.1_F4.1_T4.2_[G10A]_[T11A]], binding was put at a Kd of 34 nM. For ACAAACAAUAUAUAUUAGCACAAAC (ssRNA) [Id_ii_S3_P4E.3_K4.2_C4.2_[C-2A]_[T-1A]_H4.2_A4.1_F4.1_T4.2_[T11C]] the value was 11.9 nM. ACAAACGUUAUAUAUUACUACAAAC (ssRNA) [Id_ii_S3_P4E.3_K4.2_C4.2_[C-2G]_H4.2_A4.1_F4.1_T4.2_[G10C]] displayed a Kd of 58 nM. For ACAAACAGUAUAUAUUAACACAAAC (ssRNA) [Id_ii_S3_P4E.3_K4.2_C4.2_[C-2A]_[T-1G]_H4.2_A4.1_F4.1_T4.2_[G10A]_[T11C]] the value was 38.8 nM. To ACAAACAGUAUAUAUUAGGACAAAC (ssRNA) [Id_ii_S3_P4E.3_K4.2_C4.2_[C-2A]_[T-1G]_H4.2_A4.1_F4.1_T4.2_[T11G]] belongs 20.3 nM.
